Reference: US20170096479A1 (published 2017)
Changes are numbered by the printed parent chain. Names and notes keep the numbering of the source. Each block holds one binder with its values, some of them ahead of it.

Columns and labels:
human VEGF (hVEGF) [1] = molecular target: T1, human VEGF (hVEGF) (human, UniProt P15692 181-395); assay: cell-based or functional assay
T1 sequence: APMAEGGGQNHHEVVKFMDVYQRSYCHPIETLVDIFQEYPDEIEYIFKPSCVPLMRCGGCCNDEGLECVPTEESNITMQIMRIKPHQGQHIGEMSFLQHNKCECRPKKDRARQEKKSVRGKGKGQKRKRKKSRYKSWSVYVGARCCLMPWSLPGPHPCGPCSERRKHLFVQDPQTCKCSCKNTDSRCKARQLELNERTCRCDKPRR

human VEGF165 = human VEGF165 (human, UniProt P15692-4 27-191); assay: cell-based or functional assay
human VEGF (hVEGF) [2] = molecular target: T1, human VEGF (hVEGF); assay: SPR BIACORE kinetics
human VEGF (hVEGF) [3] = molecular target: T1, human VEGF (hVEGF); assay: SPR BIACORE T200, single cycle
Experimental: To confirm the results obtained from the deep mutagenesis scanning, selected mutations were expressed and purified, and their affinity towards VEGF was measured using BIACORE® surface plasmon resonance (SPR) and their thermostability (as assessed by melting temperature, Tₘ) was measured using differential scanning fluorimetry (DSF).
To determine the binding affinity of selected Fab variants, SPR measurement with a BIACORE® T200 instrument was used. Briefly, series S sensor chip CM5 was activated with 1-ethyl-3-(3-dimethylaminopropyl) carbodiimide (EDC) and N-hydroxysuccinimide (NHS) reagents according to the supplier's instructions, and human VEGF (hVEGF) was coupled to achieve 50-80 response units (RU), then following by blocking un-reacted groups with 1 M ethanolamine.
Three-fold serial dilutions of Fab in HBS-P buffer (0.01 M HEPES pH 7.4, 0.15 M NaCl, 0.005% surfactant P20) from low (0.02 nM) to high (50 nM) were injected (flow rate: 30 μl/min). The binding responses on hVEGF were corrected by subtracting of RU from a blank flow cell. The sensorgram was recorded and subject to reference and buffer subtraction before evaluating by BIACORE® T200 Evaluation Software (version 2.0). Association rates (kₒₙ) and dissociation rates (koff) were calculated using a simple one-to-one Langmuir binding model. The equilibrium dissociation constant (Kd) was calculated as the ratio koff/kₒₙ.

IC50 relative to G6.31, VEGF-induced HUVEC migration assay (human VEGF (hVEGF) [1]): 0.9 relative to G6.31
B1: G6.31 AAEE (LC-N94A.LC-F83A.HC-A40E.HC-T57E) (Fab, V domains shown)
VH: EVQLVESGGGLVQPGGSLRLSCAASGFTISDYWIHWVRQEPGKGLEWVAGITPAGGYEYYADSVKGRFTISADTSKNTAYLQMNSLRAEDTAVYYCARFVFFLPYAMDYWGQGTLVTVSS
VL: DIQMTQSPSSLSASVGDRVTITCRASQDVSTAVAWYQQKPGKAPKLLIYSASFLYSGVPSRFSGSGSGTDFTLTISSLQPEDAATYYCQQGYGAPFTFGQGTKVEIK

qAC50 (equivalent to IC50), pKDR receptor activation assay on KDR-CHO cells (human VEGF165): 0.135 nM
B2: HA100K-G6.31 AARR (Fab, V domains shown)
VH: B1 VH with E40A, E58T, Y59R, N84R
VL: B1 VL
modifications: free hinge cysteine of the Fab-C heavy chain conjugated to maleimide-functionalized linear hyaluronic acid (Mw 100 kDa)

Kd (human VEGF (hVEGF) [2]): 0.0949 nM
B3: R19HCLC2 (Fab, V domains shown)
VH: B1 VH with V2E, S7E, G16E, T28E, K43E, K65E, K76E, S85E, T114E
VL: B1 VL with R18E, K42E, S76E
notes: Fab

IC50 relative to G6.31, VEGF-induced HUVEC migration assay (human VEGF (hVEGF) [1]): 5.2 relative to G6.31
B4: G6.31 LC-N94A (Fab, V domains shown)
VH: B1 VH with E40A, E58T
VL: B1 VL with A83F

IC50 relative to G6.31, VEGF-induced HUVEC migration assay (human VEGF (hVEGF) [1]): 5.1 relative to G6.31
B5: G6.31 LC-N94A.LC-F83A (Fab, V domains shown)
VH: B1 VH with E40A, E58T
VL: B1 VL

kon (human VEGF (hVEGF) [3]): 1.93e+08 M⁻¹ s⁻¹
B6: G6.31 HC-T57E (Fab, name in Kabat numbering, V domains shown)
VH: B1 VH with E40A
VL: B1 VL with A83F, A94N
notes: Fab

kon (human VEGF (hVEGF) [3]): 1.17e+08 M⁻¹ s⁻¹
B7: G6.31 LC-Q89T (Fab, V domains shown)
VH: B1 VH with E40A, E58T
VL: B1 VL with A83F, Q89T, A94N
notes: Fab
